Results as given in article PMC5705219, “A map of human PRDM9 binding provides evidence for novel behaviors of PRDM9 and other zinc-finger proteins in meiosis” (eLife, 2017).

Biological target: the molecule itself
Experiment: co-IP; direct competition: HEK293T transfected with three constructs, Human and Chimp prey with the same epitope tag and Human or Chimp bait with the complementary tag; IP against the bait tag, western against the prey tag; both directions of HA/V5 tagging

B1: full-length human PRDM9 (B allele), C-terminally tagged with HA or V5 (natural protein)
chain: not shown
notes: synthetic cDNA of the full-length 2,685 bp transcript with 218 synonymous base changes in the zinc-finger exon; An HA and a V5 version were made; tag cassette is linker-TwinStrep-linker-HA/V5-linker-P2A between PRDM9 and YFP; also called Human-HA; Human-V5; source: HEK293T, transfected (pLENTI CMV/TO Puro DEST, FuGENE-HD), in lysate; not shown: HA or V5, C-terminal, kept
  fold pull-down efficiency against Chimp PRDM9 prey on the same Human bait: > 2 fold
